Results: patent US20030152959A1 (WISCONSIN ALUMNI RESEARCH FOUNDATION, published 2003)

Molecular target: T1, estrogen receptor α (ERα) (human, UniProt P03372 1-595)
T1 construct: Used as 35S-methionine-labelled protein from rabbit reticulocyte lysate, as purified recombinant ERα, and in whole-cell extract of transfected COS cells; also called NR3A1
T1 sequence (looked up): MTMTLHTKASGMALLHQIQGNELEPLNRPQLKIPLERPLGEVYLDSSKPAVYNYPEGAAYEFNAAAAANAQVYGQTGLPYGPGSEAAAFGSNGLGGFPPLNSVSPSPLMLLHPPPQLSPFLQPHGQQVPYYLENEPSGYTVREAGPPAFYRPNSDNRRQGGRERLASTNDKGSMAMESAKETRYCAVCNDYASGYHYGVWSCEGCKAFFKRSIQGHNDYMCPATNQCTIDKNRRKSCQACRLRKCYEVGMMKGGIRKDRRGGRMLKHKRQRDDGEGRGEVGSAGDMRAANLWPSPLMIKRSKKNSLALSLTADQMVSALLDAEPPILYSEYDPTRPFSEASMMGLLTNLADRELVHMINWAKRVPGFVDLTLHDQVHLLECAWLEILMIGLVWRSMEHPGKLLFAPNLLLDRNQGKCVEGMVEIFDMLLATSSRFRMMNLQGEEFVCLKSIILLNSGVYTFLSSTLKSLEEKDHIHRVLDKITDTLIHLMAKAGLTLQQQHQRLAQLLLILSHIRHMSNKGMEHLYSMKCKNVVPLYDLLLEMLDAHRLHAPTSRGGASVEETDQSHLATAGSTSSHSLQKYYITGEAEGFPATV
Assay: GST-fusion protein binding experiment with purified recombinant ERα (data referred to Johnston 1996 thesis)

binding result: binds
B1: GST-TFIIB (other, UniProt Q00403 1-316, looked up)
chain: MASTSRLDALPRVTCPNHPDAILVEDYRAGDMICPECGLVVGDRVIDVGSEWRTFSNDKATKDPSRVGDSQNPLLSDGDLSTMIGKGTGAASFDEFGNSKYQNRRTMSSSDRAMMNAFKEITTMADRINLPRNIVDRTNNLFKQVYEQKSLKGRANDAIASACLYIACRQEGVPRTFKEICAVSRISKKEIGRCFKLILKALETSVDLITTGDFMSRFCSNLCLPKQVQMAATHIARKAVELDLVPGRSPISVAAAAIYMASQASAEKRTQKEIGDIAGVADVTIRQSYRLIYPRAPDLFPTDFKFDTPVDKLPQL
notes: not shown: glutathione S-transferase encoded by the pGEX vector
